Consider seven molecules from patent publication US20240376218A1 (published 2024).

Experiment [1] addresses T1, human CCR8 (human, UniProt P51685 1-355). Nature of the experiment: cell-based or functional assay.
Experiment [2] has as its target T2, murine CCR8 (mouse, UniProt P56484 1-353).
T2 sequence: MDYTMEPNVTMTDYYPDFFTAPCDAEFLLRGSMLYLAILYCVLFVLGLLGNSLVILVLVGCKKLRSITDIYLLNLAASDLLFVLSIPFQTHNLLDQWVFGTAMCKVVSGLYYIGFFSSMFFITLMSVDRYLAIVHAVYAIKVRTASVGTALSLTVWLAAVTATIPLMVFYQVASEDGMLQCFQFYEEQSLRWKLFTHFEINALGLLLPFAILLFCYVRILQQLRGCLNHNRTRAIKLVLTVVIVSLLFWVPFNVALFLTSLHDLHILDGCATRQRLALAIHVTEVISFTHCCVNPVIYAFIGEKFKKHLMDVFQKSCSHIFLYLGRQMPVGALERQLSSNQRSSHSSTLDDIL
Nature of the experiment: cell-based or functional assay.

Experiment [3] concerns the target T3, murine CCR8 (mouse, UniProt P56484 1-353).
T3 sequence: T2 sequence
Nature of the experiment: cell-based or functional assay. The source holds these as a separate data set.

For experiment [4], the target named is T2, murine CCR8. Nature of the experiment: cell-based or functional assay. This is another data set of the same source.
In experiment [5] the target is T1, human CCR8. Nature of the experiment: cell-based or functional assay. The source holds these as a separate data set.
Experiment [6] deals with T4, human CCR8 (human, UniProt P51685 1-355).
T4 construct: also called hCCR8; P51685_CCR8_HUMAN
Nature of the experiment: FACS, HuT78 cells endogenously expressing human CCR8.

Experiment [7] deals with T5, FcRn immobilized on FcRn column (Roche, Order No. 8128057001).
T5 construct: bought prepacked column; also called immobilized FcRn
Nature of the experiment: FcRn affinity chromatography, linear pH gradient.
Method: 30 μL of each antibody (1 mg/mL in equilibration buffer) was applied to the column.

T5 sequence (P55899 24-297, chain 1 of 2): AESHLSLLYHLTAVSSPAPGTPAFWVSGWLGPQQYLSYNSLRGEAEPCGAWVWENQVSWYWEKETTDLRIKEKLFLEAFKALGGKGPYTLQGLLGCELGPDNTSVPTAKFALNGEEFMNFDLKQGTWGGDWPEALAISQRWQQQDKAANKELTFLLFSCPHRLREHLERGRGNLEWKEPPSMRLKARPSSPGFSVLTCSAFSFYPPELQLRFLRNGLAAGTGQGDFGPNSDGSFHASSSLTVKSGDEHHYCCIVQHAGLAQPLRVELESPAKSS
T5 sequence (P61769 21-119, chain 2 of 2, further chain): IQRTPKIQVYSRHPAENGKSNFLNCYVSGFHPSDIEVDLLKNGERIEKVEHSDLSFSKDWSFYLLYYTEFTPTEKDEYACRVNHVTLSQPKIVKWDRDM

B1: TPP-21045 (antibody, human IgG1, lambda, V domains shown)
VH: EVQLLESGGGLVQPGGSLRLSCAASGFTFSSAWMSWVRQAPGKGLEWVSGISWSGGSTGYALSVKGRFTISRDNSKNTLYLQMNSLRAEDTAVYYCARTYSGHYGPFFDYWGQGTLVTVSS
VL: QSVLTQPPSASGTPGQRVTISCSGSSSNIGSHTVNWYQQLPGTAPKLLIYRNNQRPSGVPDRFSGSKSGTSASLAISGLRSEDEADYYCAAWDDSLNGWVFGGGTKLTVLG
Take B1: in the experiment with human CCR8 [1], the “Ca flux assay IC50 (nM), block of signaling induced by CCL1 at 60 ng/ml; CHO cells expressing human CCR8” value was 0.29 nM.

B2: TPP-14095 (antibody, human IgG1, lambda, V domains shown)
VH: EVQLLESGGGLVQPGGSLRLSCAASGFTFSSYGMHWVRQAPGKGLEWVSAISGSGGSTYYADSVKGRFTISRDNSKNTLYLQMNSLRAEDTAVYYCARGRQLGSWGQGTLVTVSS
VL: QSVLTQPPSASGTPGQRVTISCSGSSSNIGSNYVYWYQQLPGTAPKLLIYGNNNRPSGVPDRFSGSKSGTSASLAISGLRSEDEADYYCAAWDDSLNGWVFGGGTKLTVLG
On to B2, for which the “Ca flux assay IC50 (nM), block of signaling induced by CCL1 at 40 ng/ml; CHO cells expressing murine CCR8” value in the experiment with murine CCR8 [2] came to 1.65 nM.

B3: TPP-15285 (antibody, mouse IgG2a)
heavy: EVQLLESGGGLVQPGGSLRLSCAASGFTFSDYGVHWVRQAPGKGLEWVSGVSWNGSRTHYADSVKGRFTISRDNSKNTLYLQMNSLRAEDTAVYYCVTRGAWGQGTLVTVSSAKTTAPSVYPLAPVCGDTTGSSVTLGCLVKGYFPEPVTLTWNSGSLSSGVHTFPAVLQSDLYTLSSSVTVTSSTWPSQSITCNVAHPASSTKVDKKIEPRGPTIKPCPPCKCPAPNLLGGPSVFIFPPKIKDVLMISLSPIVTCVVVDVSEDDPDVQISWFVNNVEVHTAQTQTHREDYNSTLRVVSALPIQHQDWMSGKEFKCKVNNKDLPAPIERTISKPKGSVRAPQVYVLPPPEEEMTKKQVTLTCMVTDFMPEDIYVEWTNNGKTELNYKNTEPVLDSDGSYFMYSKLRVEKKNWVERNSYSCSVVHEGLHNHHTTKSFSRTPGK
light: QSVLTQPPSASGTPGQRVTISCSGSSFNIGSHFVYWYQQLPGTAPKLLIYKNNQRPSGVPDRFSGSKSGTSASLAISGLRSEDEADYYCAAWDDSLNGPVFGGGTKLTVLGQPKSSPSVTLFPPSSEELETNKATLVCTITDFYPGVVTVDWKVDGTPVTQGMETTQPSKQSNNKYMASSYLTLTARAWERHSSYSCQVTHEGHTVEKSLSRADCS
As for B3, the “ADCC EC50 (pM); murine CCR8 expressing HEK293 target cells, primary murine NK effector cells” value with murine CCR8 [3] was 111 pM.

B4: TPP-15285 (antibody, mouse IgG2a)
heavy: B3 heavy
light: B3 light
Consider B4, for which, in the experiment with murine CCR8 [4], the “ADCP EC50 (pM); murine CCR8 expressing HEK293 target cells, murine bone marrow derived M2 macrophages” value stood at 402 pM.

B5: TPP-20955 (antibody, human IgG1, lambda, V domains shown)
VH: EVQLLESGGGLVQPGGSLRLSCAASGFTFSSYGMHWVRQAPGKGLEWVSAIKWGGGSHGYADSVKGRFTISRDNSKNTLYLQMNSLRAEDTAVYYCARGHHKGYDGRFFDYWGQGTLVTVSS
VL: QSVLTQPPSVSGAPGQRVTISCTGSSSNIGAGYNVHWYQQLPGTAPKLLIYTNNRRPSGVPDRFSGSKSGTSASLAISGLRSEDEADYYCAAWDASLSGWVFGGGTKLTVLG
On to B5, for which the “Ca flux assay Span ratio (from max to min), block of signaling induced by CCL1 at 60 ng/ml; CHO cells expressing human CCR8” value in the experiment with human CCR8 [5] was around 11400. Also, the “Ca flux assay IC50 (nM), block of signaling induced by CCL1 at 60 ng/ml; CHO cells expressing human CCR8” value with human CCR8 [1] came to 0.52 nM.

B6: TPP-27495 (antibody, human IgG1, lambda)
heavy: EVQLLESGGGLVQPGGSLRLSCAASGFTFSSYGMHWVRQAPGKGLEWVSAINWNGGSTGYADSVKGRFTISRDNSKNTLYLQMNSLRAEDTAVYYCARGHHSGYDGRFFDYWGQGTLVTVSSASTKGPSVFPLAPSSKSTSGGTAALGCLVKDYFPEPVTVSWNSGALTSGVHTFPAVLQSSGLYSLSSVVTVPSSSLGTQTYICNVNHKPSNTKVDKKVEPKSCDKTHTCPPCPAPELLGGPSVFLFPPKPKDTLYITREPEVTCVVVDVSHEDPEVKFNWYVDGVEVHNAKTKPREEQYNSTYRVVSVLTVLHQDWLNGKEYKCKVSNKALPAPIEKTISKAKGQPREPQVYTLPPSRDELTKNQVSLTCLVKGFYPSDIAVEWESNGQPENNYKTTPPVLDSDGSFFLYSKLTVDKSRWQQGNVFSCSVMHEALHNHYTQKSLSLSPGK
light: not shown
notes: 70% afucosylated
B6 showed an EC50 in the experiment with human CCR8 [6] of 3.25 nM.

B7: TPP-27495 (antibody, human IgG1, lambda)
heavy: B6 heavy
light: not shown
modifications: 70% afucosylated
Turning to B7, in experiment [7], the “pH at Elution” value is 7.88 pH.
